# Assay: soluble on expression in E. coli; label from the status in PepcDB or PDB records
row,Sequence,soluble on expression in E. coli
1,MGSDKIHHHHHHMIHKLADVQSQNIGDNTKVWQFCVILAGAVIGRNCNICANSLIENDVVIGDNVTIKSGVQIWDGIHIQDDVFIGPNVTFTNDKQPRSKIYPDEYLKTIVKKGASIGANSTILPGILIGENAMVGAGAVITKNVPDNAIVIGNPGRITGYVEANTGVIMPSNNFELKLQMSKVKGVSLHKFHLVNDLRGNLSVGEFEKDIPFTPKRYFTVFGVPNKEVRGEHAHKECKQFLICVSGNCSVLVDDGENREEYVLDSIDKGIYLPPMTWGVQYKYSKDAVLLVFASHYYDSDDYIRDYSTFKQMRQN,not soluble
2,MSQFAVIIFGDQAKANEASRVLTELQADNSLVLFSQAVIAKDLAGTVSLMAPASGGAVGSAVSGLASRLIGVPVGGHGDLSDAGVLDSFCQEAADALKPGATAIVAEISEDRLGPLNTQMHALGGQVLRSCNSDSEGDEIAKQTARQIANIERLNAEYVRAPQDADKPGETPVDAVTLAPDERASNQSIVKANAEARSAKLSQACGLTKDALG,not soluble
3,MSSKNPVDEQPCCGSHEGSHQDPAPETLVVEKEVNNGEKKIRIAVVGCSHGEMDAIYETMTLIEQKNGYKFDLLICCGDYQAVRNYGDLPHMSIPPKYRSLQTFYKYYSGEQKAPVLTLFIGGNHEASGYLCELPNGGWVAPNIYYMGFANCIRFANLRIAGLSGIFSQGDFQFSHYERPSFSERDVKSAYHVRNVDMFRLRQLKSDNENKISNPIDIMLSHDWPGGIPDFGDKEWLFRKKDLFEADHNSGKLGNPSGMKLIYDCRPRYYLAAHLHIAFAALVPHKGSGSGRPQPTRFLSLDKPIPGRKFMQALELNVADDAKLELSYDPQWLAILRNTDLLTTGTKEQLILPDMASNRPCVYERKDFRPTAEELKEIEKLGDLTIRTDSFQQTAPPLKEITESSKNVPPSAYYRNPQSAEFCQWLGIRDLNQMLVEKTSEHVGTPYYMMTQDDANAKPNQDDVDFGDEDFVIDRGHTSDEPEAKKSRLDEDKFEAVPSE,soluble
4,MTNVLILGAAGQIARLAEQQFLANTTDNLTLYLRNSSRVADQQSDRVTIIDGDTTDEAKLTQAMTGQDVVYANLAGQNIKQQAETVLKAMHTSGLKRLIWISTLGIYDEVPGKFGQWNNATLGSYLTRYYAAAEVLENSDLDYTIIRPAWLTNKDEIDYEITQRHDPFKGTEVSRKSIAALVVKLTQDPTSNIRTSLGVNKPNTDGDKPAWY,not soluble
5,MSLSVNSRILWVDLENSPHVPFFKPIIEELEKHGYRVVITARDCFQVCGLADLYGLPYTRIGRHYGKHKALKVVGAVIRALQMRNTLARPLPSLAIAHGSRSQLLAAKILHIPALQLADYEFSNKMPSFLSSDWIMVPETIPAGLHWRNTSRISTYPGIKEDVYVPTFKPQTGILSELGILEKEIVVTIRPPASEAHYHNPKSDDLFYATVNWLSGIDNLRMVVLPRNSSQAAHIGKTWPALIGEAKMVIPDRVLDGLNLIWHSDLVISGGGTMNREAAALGVPVYSIFKGEIGAVDKYLASTGRLTLLETADDITNKVLIQKWERPSSPDHNPRPALKVIVDKILELVEGHHHHHH,not soluble
6,MNKRIVICADGTWNRPEKDLKVDFPTNVLRLARAISPIAADGKPQQVFYDWGVGSYYDEVIGGATGRGLHKNIMDGYRYIVQNYSPGDEIYLFGFSRGAYTVRCLCGLINNCGILKRPEARLIQQAFDHYKKSSAPFAPSGDKSVEFRHEHCHESREIKFVGVWDTVGAMGIPISFLGLFEDKDEFYDTKIGRNVRVARHALAIDEHRSDFEPTIWQLRDNMDMQQVWFAGAHSNVGGSYLPDKDGSLLSDNALAWMIAEAERFNLSLEPHLTAGLRPNPLATLHDSRRSFYRIKQPYLRPLDPDVAPVLLHRSVKVRWEQDPKYRPKNLQAYLEKFGWPQELIDKLAAALEHHHHHH,soluble
7,MTAGEVLSQSEIDALLAALSAGEMSAEELKKEEEGRRVKTYDFRRALRFSKDQIRSLTRIHENFARLLTTFFSAQLRTYVQISVASADQIPYEEFVRSIPKMTIINVFEVPPLGGHVLLEVNPNIAYAMLDRVMGGRGVGMDKVEHLTEIETRIMSNLFDKAFVHWRDAWESVAEVDPLFVDFEVNPQFLRMIAPNDTVVVISLNTQIGEARGMMNVCIPHVVLEPIMPRLSVHYWMQAQKKERSPEEAKRIEQRIRAAKLPIIAELGTAVITVNEFLQLEAGDVIQLEQSIHEPLVVKIGHIPKFIGQPGKRNKKLAVQILAMIEGDEDDHDE,not soluble
8,MGSDKIHHHHHHMKTVIIVQARMTSTRLPGKVLKKVLDKPLLEYQIERLKRVKLADEIVIATTINSTDLPIIELCDRLSIPYFLGSEEDVLTRYYGAAKEHQADVVVRITSDCPLIDPLVINKVIQFFLDYRHECDYVSNSLERTYPRGMDTEVFSFLALHQAFVEAIAQPDREHVTPFIYMHPERYRLAQVVYSENQSSHRWTVDTADDFELIKRIIETLYPEIPKFTLEDCLDLFREYPDWSLINAHVEQKKYAA,not soluble
9,MAAIKANEQDAVGMIVRKQSEFEENSHNFNNNGPSLSDMPIEVIHNIVDYVDPINILVIRKVCRKLRNVLDGDPKFKDVHLHQPTSLDMNFSLELDDSWVDYRTNGSGSGLGLFRNSISKTKTKIFVLKHENENENENGTNCTYGF,soluble
10,MGIPKEGEFVTIQSYKHDGHLHRTWRDTMVLKTSEYSLIGVNDHTLVTESDGRRWVTREPAIVYFHKKYWFNIIAMIREKGVSYYCNLASPYVLDDEALKYIDYDLDIKVFPDGEKRLLDVDEYEFHSKLMDYPEDIDFILKENVKTLVDWINNEKGPFSPEYVDIWYQRYQQLSKK,not soluble
11,MGSDKIHHHHHHSGSFDPVTGAYTTDPITVTLTPKTVAVSTSVIANGERVYWATDKYPQGAGTFYWGSHTYTLESASDVTLAIPGINASGVCTATGSGTSLTINGCFSFSHNGTIYMGKSASCKSFFSLQSNLSSLTNFGDFVALTLGPGTNTIQLNKTGITDVNTTSFTYPSTTRSTSYRWTTYDINLQATLSAKTPPYTYLYCSVSQGLRVIMTTGGVVPNPFAMVPAASKPAYSPTISYSPALPIINTIAVNIRNITAIDILPRTVFNTGTISAWRTTYMEQPLTVTGQGNITRDFGASQNFNVLESWTCATTGQIDFRIMRDNTNANVCSGATYTHPVQTPQSLTAQWKAQSSTASGAWSARATVTFTLP,not soluble
12,MDIRQMNRTHLDHWRGLRKQLWPGHPDDAHLADGEEILQADHLASFIAMADGVAIGFADASIRHDYVNGCDSSPVVFLEGIFVLPSFRQRGVAKQLIAAVQRWGTNKGCREMASDTSPENTISQKVHQALGFEETERVIFYRKRC,not soluble
13,MTEEVGQKLLESLSLFKLGDIGYARIECELLTTFLEEQLENNLDSLSIHELSTNLIRNRICCREFIESRPAKKWVFLIFRLARTLFRDKTRIATFHSVNLHSEFVQVFWRNLTYQTKSYRNCKFQTFQFIASRFLRSEHDWNVTVVNCLNVTQKLIDNGENARKFVDCNLEDAVLVLLATRQMTVLQHSLEILGRLSDWSTTCRENLLCISLLRILSCEEQAREQIRIYDGVPTLLGLLSIKNSRLQWHVAWTLAQLAEQHETSLEIAQLGGISLIFAAISNPKPPGKAVGDWVAMLTGLTALLAQLAQASSNQQLMSNANGVYILGKLLAIKKNVTTDETIDSWDLLQCSIFRVLRLMYTFERSRQLLKKVLPTEIFEKFVDVGNYNSVLTDYDQIAKMYDNLIEENIEIMKDWETVNERRQAVGEVGEYELLDQLGAGAFGCVYTVRKKAQSHSENPAKLLALKEIFMTNLNDRESDKSFGDMISEVKIIKQQLRHPNIVRYRRIFVENHRLYIVMDLIQGCSLRDLIITMKEKKGNFEEKKIWAMVVQMMLALRYLHKEKQIVHRDLKPNNIMMTTDERVVITDFGLAKQKGPEYLKSAAGTIIYSCPEIVQNLPYGEKADIWSFGCCIYEMCQLQPVFHSTNMLTLAMQIVEAKYDPLNEMWSDDLRFLITSCLAPDPSARPDILKVSGMCGVRLLEYLDDVARQQASTSDMTASQSSYNIKIDESPSSLNSSTSSYKRPGRSSKTSGSGKLPPINPAPRRNHSMSAGETPRPSSIVCLPRITDKYSVMFPSAPSAIPSRRRVQTCSTEHPARSSSSTELKVSKQSDGLTVSSNVLRQIQDPVLTILNQIHRILVVTDKETISTSMNHQRRLVEMFRKNLLGRENDAVQMKTHLRKLAAESPEEIQMNLGFSDFRPVLVQSHINGYQKDQKVTKITYEQLSACIECLIAENPAAK,soluble
14,LKSSRFHEKILCDIGGVPMFVATARRVSSVDEVCIALDDEKVLSIAKEYGLNAVLTSKDHESGTDRINEACKKLALKDDEIIINVQADEPFIECENLLKFKEFASFCLDKKAFMASCYKKITQEEAMDPNLVKVLCDKEGYALYFSRAKIPYERENYEESFKGHLGIYAYSVKALREFCSLSSSALERAEKLEQLRAIENGKKIKMLEISTTSMGIDTKEDYERALKIYLEK,not soluble
15,SLEKLEFEDEAVEDSESGVYMRFMRSHKCYDIVPTSSKLVVFDTTLQVKKAFFALVANGVRAAPLWESKKQSFVGMLTITDFINILHRYYKSPMVQIYELEEHKIETWRELYLQETFKPLVNISPDASLFDAVYSLIKNKIHRLPVIDPISGNALYILTHKRILKFLQLFMSDMPKPAFMKQNLDELGIGTYHNIAFIHPDTPIIKALNIFVERRISALPVVDESGKVVDIYSKFDVINLAAEKTYNNLDITVTQALQHRSQYFEGVVKCNKLEILETIVDRIVRAEVHRLVVVNEADSIVGIISLSDILQALILTPAGAKQKETETE,soluble
16,GPGSMSALWARFTEKLKGSGYTLSDLVYCSEDTFLTLVANMNAFTPLQIASLAKEWQRSLSAAATPTATVSGSALPISRRHAESTRLSSSPVRSSALNRATLPATGAAETPPNHSTLSTALRKNSFVPPRRSPAKVKEEAEYLLTKLGAQSGAEYQVSLTEGIVAVEASPEAWGPLLDRVSRMHVTSHRDSAAAATPLATELQLLWKLCSPATLRKMEKACVSGAPFGLSNQDDADGLCSSAVVLYGKDATRLAAPAEELEQLFREGWGLVAFDVAVGKARTVTKEEAQDLNANLYRFSMEQCLEMLEEAGFDAFHIPSRNAVAVCHMHQLMPRFVVFVSTLEPVVVTRRLGDAVPAVGNGRPSRAPPAPAASPSPSAVAAAAAALPAARRSINGGDDVLVPASRSSRNSEDLQCAVHSKKTVEFWSPTEKRLLCSHCLYYDGYSQENCIPIEQAAREEAPRLERWVQNAITFSQEIKSVFDLFEAAQTDVSQTHKQVRSDIAHSFTRLRARLDALEANLQQQCQQKAQQNLQVLQDTLSRITATVQFVSEVVQDADEPVAAYRGGVADTNTCVALLRSAQRAFGAWEPVTISAYEDVRIVDGSALLQPVEEALKAVQSISSEAGKVQLPEAIDVNYLKSDCDV,not soluble
17,MLSQKLFEEISAKISETIAASPAKDIEKNVRAMMASTFSKMDLVTREEFDVQQAVLARTREKLAALESRLARLESQAFPDEAAAKVEEQSELGHS,not soluble
18,MGSDKIHHHHHHMIEDNMKLKTGIPALDRILGGGFEKGCNIALVGGMDNDHILLTHQLTNAFLSSGKKVLLVELRQDPASLIKWLSQYNINYEEYLEDGDLKILDGFSNLYSPASISGPDVLPNPLDLGITTAIIRDNVSKEKYDILVFDDITSLYALQTDYKAYVRVIVRLTNSIRKLGASSLVAINSDVLSIQDLSMILMPFEYLIEIREGMIRFKRSFSFINVPGVPYVKTNKGIIPIEDVLKDAVSIRDSLVLTSDGVLKLGEGRVQLIGETSERSLIEFVYRFLGPEKGREFLYGWGRHEVEHLEIPKIESVEEIKEILEEAFEVTRSTGGGILRIVEATKDIIIVEGKNLFPHIRNFPYPAHVHYAGYMAKLLEKATGERWEGEEIKCESQTNDKCIFILRRV,not soluble

# Reference: the DeepSol protein solubility set
